B1: BBP3: 221 amino acid BBP family protein (short form), SEQ ID NO:6; expressed from pFL12 (protein, listed as Homo sapiens)
chain: MAGGVRPLRGLRALCRVLLFLSQFCILSGGESTEIPPYVMKCPSNGLCSRLPADCIDCTTNFSCTYGKPVTFDCAVKPSVTCVDQDFKSQKNFIINMTCRFCWQLPETDYECTNSTSCMTVSCPRQRYPANCTVRDHVHCLGNRTFPKMLYCNWTGGYKWSTALALSITLGGFGADRFYLGQWREGLGKLFSFGGLGIWTLIDVLLIGVGYVGPADGSLYI
B2: BBP1: novel BAP binding protein, SEQ ID NO:2; two-transmembrane protein with 'DRF' motif; expressed from pOZ363 (protein, listed as Homo sapiens)
chain: MHILKGSPNVIPRAHGQKNTRRDGTGLYPMRGPFKNLALLPFSLPLLGGGGSGSGEKVSVSKMAAAWPSGPSAPEAVTARLVGVLWFVSVTTGPWGAVATSAGGEESLKCEDLKVGQYICKDPKINDATQEPVNCTNYTAHVSCFPAPNITCKDSSGNETHFTGNEVGFFKPISCRNVNGYSYKVAVALSLFLGWLGADRFYLGYPALGLLKFCTVGFCGIGSLIDFILISMQIVGPSDGSSYIIDYYGTRLTRLSITNETFRKTQLYP
B3: 5HT-R: 7-tm domain G protein-coupled serotonin receptor expressed as control in the apoptosis assay (protein, UniProt P08908 1-422, looked up)
5-hydroxytryptamine receptor …: MDVLSPGQGNNTTSPPAPFETGGNTTGISDVTVSYQVITSLLLGTLIFCAVLGNACVVAAIALERSLQNVANYLIGSLAVTDLMVSVLVLPMAALYQVLNKWTLGQVTCDLFIALDVLCCTSSILHLCAIALDRYWAITDPIDYVNKRTPRRAAALISLTWLIGFLISIPPMLGWRTPEDRSDPDACTISKDHGYTIYSTFGAFYIPLLLMLVLYGRIFRAARFRIRKTVKKVEKTGADTRHGASPAPQPKKSVNGESGSRNWRLGVESKAGGALCANGAVRQGDDGAALEVIEVHRVGNSKEHLPLPSEAGPTPCAPASFERKNERNAEAKRKMALARERKTVKTLGIIMGTFILCWLPFFIVALVLPFCESSCHMPTLLGAIINWLGYSNSLLNPVIYAYFNKDFQNAFKKIIKCKFCRQ

Columns and labels:
[1] = biological target: T1, rat Gαs (Rattus norvegicus, UniProt P63095); experiment: Yeast 2-hybrid (Y2H) bioassay for BBP interaction with Gαs; conditions: BBP intracellular loop as Gal4 DNA-binding domain fusion; C-terminal region of Gα as Gal4 activation domain fusion; compared to vector
T1 construct: fusion proteins containing C-terminal regions of Gα proteins in Y2H assays; expressed in transfected cells; host or cells: yeast strain CY770, plasmid pACT2
From the text: (§1) Yeast 2-hybrid assays. Y2H expression plasmids were constructed in the vectors pAS2 and pACT2 (Wade Harper et al., 1993). Strain CY770 (Ozenberger and Young, 1995) served as the host for Y2H assays. Sequences encoding the BBPI intracellular loop were amplified using the oligonucleotides 5′-CCTTCC ATGGAAGTGGCAGTCGCATTGTCT [SEQ ID NO:24] plus 5′-AACACTCGAG TCAAAACCCTACAGTGCAAAAC [SEQ ID NO:25]. This product, containing BBP1 codons 185 to 217, was digested with NcoI+XhoI and cloned into pAS2 cleaved with NcoI+SaII to generate pOZ339. Sequences encoding the BBP2 intracellular loop were amplified using the oligonucleotides 5′-CCATG GCCACTTTACTCTACTCCTTCTT [SEQ ID NO:26] plus 5′-CTCGAG TCA AAT CCC MG TCC TCC MG CG [SEQ ID NO:27]. […]
(§2) The various combinations of plasmids were transformed into strain CY770 by standard protocols. […] Cells were concentrated by centrifugation, counted and 10-fold serial dilutions made from 10^4 to 10^8 cells per ml in sterile water. […]
(§3) BBP1 contains a structural motif known to be a Gα protein activating sequence in the related G protein-coupled receptors. The intracellular sequences of each BBP were expressed as fusion proteins and assayed. for physical interactions with fusion proteins containing C-terminal regions of Gα proteins in Y2H assays.

[2] = biological target: T2, rat Gαo (Rattus norvegicus, UniProt P59215); experiment: Yeast 2-hybrid (Y2H) bioassay for BBP interaction with Gαo; conditions: BBP intracellular loop as Gal4 DNA-binding domain fusion; C-terminal region of Gα as Gal4 activation domain fusion; compared to vector
T2 construct: fusion proteins containing C-terminal regions of Gα proteins in Y2H assays; expressed in transfected cells; host or cells: yeast strain CY770, plasmid pACT2
From the text: as §1, §2, §3

[3] = biological target: T3, rat Gαi2 (Rattus norvegicus, UniProt P04897); experiment: Yeast 2-hybrid (Y2H) bioassay for BBP interaction with Gαi2; conditions: BBP intracellular loop as Gal4 DNA-binding domain fusion; C-terminal region of Gα as Gal4 activation domain fusion; compared to vector
T3 construct: fusion proteins containing C-terminal regions of Gα proteins in Y2H assays; expressed in transfected cells; host or cells: yeast strain CY770, plasmid pACT2
From the text: as §1, §2, §3

[4] = tested on: Human Ntera2 (Nt2) stem cells; experiment: Staurosporine-induced nuclear condensation (apoptosis) in transfected Nt2 stem cells; assay type: cell-based
From the text: Mammalian expression plasmids. BBP cDNAs were modified by polymerase chain reaction (PCR) for expression from the vector pcDNA3.1 (Invitrogen Corp., Carlsbad, Calif.). BBP1 cDNA was amplified from pBBP1-fl (ATCC #98617); from the third potential translation start site to the translation stop codon, adding a 5′ EcoRI and a 3′ SaII site for cloning. The BBP1 cDNA contains three potential translation starts (codons 1, 30, and 63). The third start site was chosen for the described experiments because the first two potential initiating codons lack appropriate sequence context for efficient translation initiation (see Kozak, 1996), and based on similarities of the protein derived from the third start site with a putative BBP1 orthologue from Drosophila melanogaster (Genbank accession M941984). FIG. 1 depicts this minimal BBP1 translation product to optimize the alignment with the other BBP subtypes. The PCR primers were 5′-TGGTGAATTC GAAAGTGTCG GTCTCAACG ATG G [SEQ ID NO:36] (+strand) and 5′-CTTCGTCGAC TTATGGATATAATTGCGTTTTTC [SEQ ID NO:37] (−strand). The PCR product was digested with EcoRI+SaII and cloned into pcDNA3.1/EcoRI−XhoI to create pOZ363. BBP2 and BBP3 expression plasmids were similarily engineered. BBP2 was amplified from pOZ359 (ATCC #98851; using primers 5′-TTCCGAATTC AAGATGGTGCTAGGTGGTTGCCC [SEQ ID NO:38] (+strand) plus 5′-TTCCCTCGAG TTAGTAAACAGTGCACCAGTTGC [SEQ ID NO:39] (−strand). The PCR product was digested with EcoRI+XhoI and cloned into pcDNA3.1/EcoRI−XhoI to create pFL1 1. BBP3 was amplified from pOZ350 (ATCC #98712 using primers 5′-TTTTGAATTC GCAAG ATG GCG GGA GGG GTG CGC [SEQ ID NO:40] (+strand) plus 5′-TTGGCTCGAG CTAAATGTACAAAGAGCCATCTG [SEQ ID NO:41] (−strand). The PCR product was digested with EcoRI+XhoI and cloned into pcDNA3.1/EcoRI−XhoI to create pFL12. Mutation of the arginine codon within the ‘DRF’ motif of each BBP cDNA was performed using the QuickChange system (Stratagene Co., La Jolla, Calif.). Oligonucleotides were synthesized and purified by Genosys Biotechnologies, Inc. (The Woodlands, Tex.). The R138 codon of BBP1 in pOZ363 was changed to an alanine codon using the oligonucleotide 5′-GG TTGGGAGCAGATGCATTTTACCTTGGATACCC [SEQ ID NO: 42] and its exact reverse complement. The changed nucleotides are underlined. The R138 position of BBP1 in pOZ363 was changed to E using the oligonucleotide 5′-GG TTGGGAGCAGATGAATTTTACCTTGGATACCC [SEQ ID NO:43] and its exact reverse complement. The R167 position of BBP2 in pFL11 was changed to E using the oligonucleotide 5′-CTGGGATGTTTTGGTGTGGAT GM TTC TGT TTG GGA CAC AC [SEQ ID NO:44] and its exact reverse complement. […]

[5] = recombinant expression in Nt2 stem cells, 100 nM staurosporine for 3 hrs

T3 sequence (P04897 213-355 limits assumed): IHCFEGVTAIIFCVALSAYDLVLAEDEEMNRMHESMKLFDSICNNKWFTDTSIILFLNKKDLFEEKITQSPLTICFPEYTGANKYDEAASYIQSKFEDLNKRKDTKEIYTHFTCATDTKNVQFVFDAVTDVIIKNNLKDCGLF
T2 sequence (P59215 213-354 limits assumed): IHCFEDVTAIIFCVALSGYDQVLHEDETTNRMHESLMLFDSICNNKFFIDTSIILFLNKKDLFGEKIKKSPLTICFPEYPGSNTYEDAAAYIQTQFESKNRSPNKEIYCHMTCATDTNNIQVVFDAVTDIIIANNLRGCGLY
T1 sequence (P63095 235-394 limits assumed): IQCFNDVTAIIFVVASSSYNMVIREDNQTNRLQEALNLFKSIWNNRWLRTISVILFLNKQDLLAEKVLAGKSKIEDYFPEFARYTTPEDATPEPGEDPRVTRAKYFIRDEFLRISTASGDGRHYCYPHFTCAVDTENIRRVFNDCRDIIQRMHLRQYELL

Row | Molecule | physical interaction with Gαs (Y2H growth response) [1] | physical interaction with Gαo (Y2H growth response) [2] | physical interaction with Gαi (Y2H growth response) [3] | suppression of staurosporine-induced nuclear condensation (antiapoptotic activity), in words [4, 5] | cell death induced by staurosporine ([4]; Nt2 transfectants, 24 hr treatment with staurosporine (data not shown)) | apoptosis (percentage of condensed nuclei among EGFP+ transfectants) ([4]; recombinant expression in Nt2 stem cells, 100 nM staurosporine for 3 hrs, controls 45%)
1 | B1 | strong response | none | exhibited interaction | suppressed the induction of nuclear condensation to the same levels as BBP1 | – | –
2 | B2 | interacted with all three Gα proteins | interacted with all three Gα proteins | interacted with all three Gα proteins | – | blocked cell death | 13.5%
3 | B3 | – | – | – | had no effect | – | –
